Target: human telomerase reverse transcriptase hTERT (WT) (human) (UniProt O14746)
Assay: sucrose gradient sedimentation

human telomerase reverse transcriptase hTERT (WT) (from UniProt O14746 1-1132) (enzyme)
stoichiometry N: 2
